The numbers were not newly measured in publication PMC7922473, which cites them from elsewhere.

A word on the Kd: it is the concentration at which binding is half-saturated.

For the data set, the target named is PrPC (cellular prion protein) (UniProt P04156).

On to “CGGTGGGGCAATTTCTCCTACTGT [PrPC aptamer (PrPC-Apt)]”, for which the Kd was 16 nM.
